Assay results reported in CN116199779A (BEIJING DONGFANG BIOTECH CO LTD; BEIJING JINGYI TAIXIANG …, dated 2023).
Like-named read-outs stand apart in the source and are kept apart here. Each block holds one binder with its values, some of them ahead of it.

Assays:
[1] = molecular target: T1, THP-1细胞表面的LILRB4 (human, UniProt Q8NHJ6 22-448); assay: flow cytometry on THP-1 cells
T1 construct: whole, on cells; Endogenous LILRB4 on THP-1 cells; also called 人单核细胞白血病细胞(THP-1)表面LILRB4

[2] = molecular target: T1, THP-1细胞表面的LILRB4; assay: flow cytometry competition on THP-1 cells; competitor FITC-labelled ApoE
[3] = molecular target: T1, THP-1细胞表面的LILRB4; assay: cell-based or functional assay
[4] = molecular target: T2, LILRB4抗原 (人LILRB4蛋白胞外段) (human, UniProt Q8NHJ6 22-259); assay: ELISA, coated LILRB4, anti-human IgG-HRP
T2 construct: extracellular domain; also called 白细胞免疫球蛋白样受体亚家族B成员4

[5] = molecular target: T1, THP-1细胞表面的LILRB4; assay: cell-based or functional assay; remark: listed apart in the source
[6] = molecular target: T1, THP-1细胞表面的LILRB4; assay: flow cytometry on THP-1 cells, FITC anti-mouse IgG
[7] = molecular target: T1, THP-1细胞表面的LILRB4; assay: flow cytometry competition on THP-1 cells; competitor FITC-labelled ApoE; remark: listed apart in the source
[8] = molecular target: T3, LILRB1 (UniProt Q8NHL6 24-461, limits assumed); assay: ELISA, coated protein 100ng/well
T3 construct: construct not described
T3 sequence (Q8NHL6 24-461 limits assumed): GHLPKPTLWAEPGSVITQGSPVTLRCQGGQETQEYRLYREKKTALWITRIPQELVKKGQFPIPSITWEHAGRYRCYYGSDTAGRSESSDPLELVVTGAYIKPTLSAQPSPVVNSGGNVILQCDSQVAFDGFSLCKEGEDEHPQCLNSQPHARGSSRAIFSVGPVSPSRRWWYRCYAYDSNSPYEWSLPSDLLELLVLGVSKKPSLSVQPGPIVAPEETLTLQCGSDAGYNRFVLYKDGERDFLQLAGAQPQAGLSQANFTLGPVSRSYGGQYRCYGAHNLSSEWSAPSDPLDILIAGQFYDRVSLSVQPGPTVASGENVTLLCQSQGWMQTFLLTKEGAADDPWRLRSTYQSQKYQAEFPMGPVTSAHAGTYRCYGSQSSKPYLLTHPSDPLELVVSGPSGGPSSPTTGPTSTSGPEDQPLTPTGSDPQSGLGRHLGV

[9] = molecular target: T4, LILRB3 (UniProt O75022 24-443, limits assumed); assay: ELISA, coated protein 100ng/well
T4 construct: construct not described
T4 sequence (O75022 24-443 limits assumed): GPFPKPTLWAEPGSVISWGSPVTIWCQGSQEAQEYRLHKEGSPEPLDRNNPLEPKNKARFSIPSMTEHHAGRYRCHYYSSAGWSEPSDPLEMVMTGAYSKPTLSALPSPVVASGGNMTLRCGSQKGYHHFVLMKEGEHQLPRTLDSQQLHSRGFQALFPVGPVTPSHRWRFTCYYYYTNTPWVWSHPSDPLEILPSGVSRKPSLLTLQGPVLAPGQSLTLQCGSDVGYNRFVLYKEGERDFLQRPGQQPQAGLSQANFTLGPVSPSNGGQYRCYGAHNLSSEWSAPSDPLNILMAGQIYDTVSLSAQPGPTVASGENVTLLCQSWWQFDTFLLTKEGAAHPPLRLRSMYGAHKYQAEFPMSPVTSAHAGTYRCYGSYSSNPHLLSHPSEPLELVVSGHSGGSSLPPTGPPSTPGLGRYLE

[10] = molecular target: T5, LILRA5 (UniProt A6NI73 42-268, limits assumed); assay: ELISA, coated protein 100ng/well
T5 construct: construct not described
T5 sequence (A6NI73 42-268 limits assumed): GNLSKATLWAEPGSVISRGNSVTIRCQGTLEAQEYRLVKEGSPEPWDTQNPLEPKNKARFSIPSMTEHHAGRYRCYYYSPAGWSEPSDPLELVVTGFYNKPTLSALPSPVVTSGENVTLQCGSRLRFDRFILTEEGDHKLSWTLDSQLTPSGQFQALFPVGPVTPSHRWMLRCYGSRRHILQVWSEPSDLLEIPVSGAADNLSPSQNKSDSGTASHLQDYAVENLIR

[11] = molecular target: T6, LILRB2 (UniProt Q8N423 22-460, limits assumed); assay: ELISA, coated protein 100ng/well
T6 construct: construct not described
T6 sequence (Q8N423 22-460 limits assumed): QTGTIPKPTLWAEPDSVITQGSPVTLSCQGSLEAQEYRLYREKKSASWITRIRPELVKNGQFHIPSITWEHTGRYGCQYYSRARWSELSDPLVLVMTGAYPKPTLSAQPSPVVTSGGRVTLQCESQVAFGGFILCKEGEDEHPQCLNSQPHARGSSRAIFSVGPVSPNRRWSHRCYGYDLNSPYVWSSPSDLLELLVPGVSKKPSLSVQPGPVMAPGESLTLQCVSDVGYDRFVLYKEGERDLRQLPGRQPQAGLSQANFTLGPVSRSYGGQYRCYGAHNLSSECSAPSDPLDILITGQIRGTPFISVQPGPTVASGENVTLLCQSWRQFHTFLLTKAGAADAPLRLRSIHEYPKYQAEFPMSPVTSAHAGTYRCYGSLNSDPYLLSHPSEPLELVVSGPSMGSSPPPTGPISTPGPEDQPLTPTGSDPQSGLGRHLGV

[12] = molecular target: T7, LILRA3 (UniProt Q8N6C8 24-439); assay: ELISA, coated protein 100ng/well
T7 construct: construct not described
T7 sequence (Q8N6C8 24-439 limits assumed): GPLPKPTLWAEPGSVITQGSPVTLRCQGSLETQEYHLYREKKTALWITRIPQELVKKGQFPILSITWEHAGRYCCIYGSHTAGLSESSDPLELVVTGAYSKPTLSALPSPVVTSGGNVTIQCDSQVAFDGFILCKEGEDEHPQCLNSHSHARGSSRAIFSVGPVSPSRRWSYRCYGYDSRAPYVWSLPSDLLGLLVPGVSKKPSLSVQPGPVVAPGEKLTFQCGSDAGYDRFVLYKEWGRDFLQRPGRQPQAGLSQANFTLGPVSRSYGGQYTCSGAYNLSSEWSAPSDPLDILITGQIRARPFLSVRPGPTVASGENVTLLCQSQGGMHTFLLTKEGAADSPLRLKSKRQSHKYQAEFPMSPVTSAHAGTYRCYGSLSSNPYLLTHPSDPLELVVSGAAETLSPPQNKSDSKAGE

[13] = molecular target: T8, LILRA4 (UniProt P59901 24-446, limits assumed); assay: ELISA, coated protein 100ng/well
T8 construct: construct not described
T8 sequence (P59901 24-446 limits assumed): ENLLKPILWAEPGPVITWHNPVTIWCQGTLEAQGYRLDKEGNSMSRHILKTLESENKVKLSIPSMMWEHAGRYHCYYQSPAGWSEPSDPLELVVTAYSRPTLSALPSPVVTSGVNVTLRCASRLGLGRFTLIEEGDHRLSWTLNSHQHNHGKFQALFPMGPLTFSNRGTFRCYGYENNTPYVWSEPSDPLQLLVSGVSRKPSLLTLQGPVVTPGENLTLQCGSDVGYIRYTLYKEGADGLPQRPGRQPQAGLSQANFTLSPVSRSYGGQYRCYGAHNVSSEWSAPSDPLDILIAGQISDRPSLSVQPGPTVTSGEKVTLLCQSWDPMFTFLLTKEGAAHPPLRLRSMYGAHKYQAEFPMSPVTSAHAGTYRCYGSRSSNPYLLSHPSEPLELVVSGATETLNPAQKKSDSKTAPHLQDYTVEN

[14] = molecular target: T9, LILRB5 (UniProt O75023 24-458, limits assumed); assay: ELISA, coated protein 100ng/well
T9 construct: construct not described
T9 sequence (O75023 24-458 limits assumed): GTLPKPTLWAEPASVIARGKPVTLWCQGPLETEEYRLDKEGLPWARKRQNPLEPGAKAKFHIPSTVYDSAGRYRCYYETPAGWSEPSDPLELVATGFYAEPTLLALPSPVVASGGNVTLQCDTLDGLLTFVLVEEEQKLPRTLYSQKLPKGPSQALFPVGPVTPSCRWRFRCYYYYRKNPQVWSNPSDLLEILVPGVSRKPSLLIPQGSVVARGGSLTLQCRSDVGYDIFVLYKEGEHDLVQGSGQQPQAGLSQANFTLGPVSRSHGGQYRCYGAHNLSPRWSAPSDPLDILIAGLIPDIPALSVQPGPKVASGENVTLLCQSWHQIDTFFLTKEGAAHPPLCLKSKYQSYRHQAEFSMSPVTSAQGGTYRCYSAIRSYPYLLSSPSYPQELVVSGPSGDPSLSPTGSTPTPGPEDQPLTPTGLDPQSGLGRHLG

[15] = molecular target: T10, LILRA2 (UniProt Q8N149 24-449, limits assumed); assay: ELISA, coated protein 100ng/well
T10 construct: construct not described
T10 sequence (Q8N149 24-449 limits assumed): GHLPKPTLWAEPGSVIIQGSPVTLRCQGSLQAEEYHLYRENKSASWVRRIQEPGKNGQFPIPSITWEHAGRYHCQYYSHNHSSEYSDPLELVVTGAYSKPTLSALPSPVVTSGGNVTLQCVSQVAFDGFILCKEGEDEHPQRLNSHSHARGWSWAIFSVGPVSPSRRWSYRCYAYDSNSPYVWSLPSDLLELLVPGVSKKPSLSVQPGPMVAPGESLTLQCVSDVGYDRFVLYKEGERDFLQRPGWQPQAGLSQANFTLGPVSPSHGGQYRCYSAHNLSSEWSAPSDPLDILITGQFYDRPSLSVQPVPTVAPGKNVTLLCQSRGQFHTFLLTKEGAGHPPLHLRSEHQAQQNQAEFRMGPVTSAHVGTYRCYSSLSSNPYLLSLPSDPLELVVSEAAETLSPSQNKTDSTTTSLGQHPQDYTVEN

[16] = molecular target: T11, LILRA1 (UniProt O75019 17-461, limits assumed); assay: ELISA, coated protein 100ng/well
T11 construct: construct not described
T11 sequence (O75019 17-461 limits assumed): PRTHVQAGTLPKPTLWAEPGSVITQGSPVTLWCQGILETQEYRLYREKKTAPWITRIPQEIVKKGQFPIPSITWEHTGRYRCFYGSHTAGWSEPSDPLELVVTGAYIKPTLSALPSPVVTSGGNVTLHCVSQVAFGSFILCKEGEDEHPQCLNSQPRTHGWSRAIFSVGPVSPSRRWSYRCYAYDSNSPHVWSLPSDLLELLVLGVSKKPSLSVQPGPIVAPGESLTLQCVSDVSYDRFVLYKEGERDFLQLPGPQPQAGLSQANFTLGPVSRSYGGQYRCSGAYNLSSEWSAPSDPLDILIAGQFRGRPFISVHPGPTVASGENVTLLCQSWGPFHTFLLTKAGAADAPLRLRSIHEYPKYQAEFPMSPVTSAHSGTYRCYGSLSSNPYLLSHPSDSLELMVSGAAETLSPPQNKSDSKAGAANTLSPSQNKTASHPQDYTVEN

[17] = molecular target: T12, LILRA6 (UniProt Q6PI73 24-447, limits assumed); assay: ELISA, coated protein 100ng/well
T12 construct: construct not described

[18] = molecular target: T1, THP-1细胞表面的LILRB4; assay: cell-based or functional assay; remark: listed apart in the source
[19] = molecular target: T2, LILRB4抗原 (人LILRB4蛋白胞外段); assay: ELISA, coated LILRB4, anti-mouse IgG-HRP
[20] = molecular target: T3, LILRB1; assay: ELISA, coated protein 100ng/well, antibody 50μg/mL
[21] = molecular target: T4, LILRB3; assay: ELISA, coated protein 100ng/well, antibody 50μg/mL
[22] = molecular target: T5, LILRA5; assay: ELISA, coated protein 100ng/well, antibody 50μg/mL
[23] = molecular target: T6, LILRB2; assay: ELISA, coated protein 100ng/well, antibody 50μg/mL
[24] = molecular target: T7, LILRA3; assay: ELISA, coated protein 100ng/well, antibody 50μg/mL
[25] = molecular target: T8, LILRA4; assay: ELISA, coated protein 100ng/well, antibody 50μg/mL
[26] = molecular target: T9, LILRB5; assay: ELISA, coated protein 100ng/well, antibody 50μg/mL
[27] = molecular target: T10, LILRA2; assay: ELISA, coated protein 100ng/well, antibody 50μg/mL
[28] = molecular target: T2, LILRB4抗原 (人LILRB4蛋白胞外段); assay: ELISA, coated protein 100ng/well, antibody 50μg/mL
[29] = molecular target: T11, LILRA1; assay: ELISA, coated protein 100ng/well, antibody 50μg/mL
[30] = molecular target: T12, LILRA6; assay: ELISA, coated protein 100ng/well, antibody 50μg/mL

B2: 人源化抗体HA-Ⅲ (human IgG1, Ck) (antibody, V domains shown)
VH: EVQLVESGGGLVKPGGSLRLSCAASGFTFSSYTMSWVRQAPGKGLEWVATISSGGTYTYYPDSVKGRFTISRDNAKNSLYLQMNSLRAEDTAVYYCTRDGYDGFDYWGQGTTVTVSS
VL: DIVMTQTPLSLSVTPGQPASISCRSSQSLAHSNGNTYLHWYLQKPGQSPKLLIYKVSNRFSGVPDRFSGSGSGTDFTLKISRVEAEDVGVYFCSQSTHVPTFGGGTKVEIKR
notes: also called HA-III
EC50 [1]: 0.186 µg/mL
IC50 [2]: 2.56 µg/mL
IC50 of inhibition of ARG1 secretion by THP-1 cells with ApoE (arginase activity) [3]: 98.5 µg/mL
EC50 [4]: 0.014 µg/mL
IC50, NF-κB luciferase reporter in THP-1-NF-κB-Luc cells stimulated with ApoE [5]: 3.44 µg/mL

B3: 嵌合抗体CB-Ⅰ (MB-Ⅰ variable regions, human IgG1, Ck) (antibody)
heavy: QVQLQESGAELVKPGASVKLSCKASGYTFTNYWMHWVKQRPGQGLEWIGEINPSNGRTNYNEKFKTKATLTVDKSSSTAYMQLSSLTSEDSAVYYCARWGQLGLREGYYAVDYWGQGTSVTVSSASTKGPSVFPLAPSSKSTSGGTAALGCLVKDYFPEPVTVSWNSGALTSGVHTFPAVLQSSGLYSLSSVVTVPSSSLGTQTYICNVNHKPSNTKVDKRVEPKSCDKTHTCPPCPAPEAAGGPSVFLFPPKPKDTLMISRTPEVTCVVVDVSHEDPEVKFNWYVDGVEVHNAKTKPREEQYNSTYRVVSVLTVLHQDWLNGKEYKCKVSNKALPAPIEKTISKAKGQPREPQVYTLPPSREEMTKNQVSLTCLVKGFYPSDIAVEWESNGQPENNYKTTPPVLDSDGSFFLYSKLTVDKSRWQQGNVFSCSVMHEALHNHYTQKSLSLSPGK
light: DIVMTQSPSSLSASLGDRVTISCRASQDISNYLNWYQQKPDGTVKLLIYYTSRLHSGVPSRFSGSGSGTDYSLTISNLEQEDIATYFCQQGNTLPPTFGGGTKLEIKRTVAAPSVFIFPPSDEQLKSGTASVVCLLNNFYPREAKVQWKVDNALQSGNSQESVTEQDSKDSTYSLSSTLTLSKADYEKHKVYACEVTHQGLSSPVTKSFNRGEC
notes: also called CB-I
EC50 [1]: 0.445 µg/mL
EC50 [4]: 0.0655 µg/mL

Further lines, results first:

EC50 [1]: 0.181 µg/mL
IC50 [2]: 0.48 µg/mL
IC50 of inhibition of ARG1 secretion by THP-1 cells with ApoE (arginase activity) [3]: 31.2 µg/mL
EC50 [4]: 0.0174 µg/mL
IC50, NF-κB luciferase reporter in THP-1-NF-κB-Luc cells stimulated with ApoE [5]: 0.756 µg/mL
B1: 人源化抗体HA-Ⅰ (human IgG1, Ck) (antibody, V domains shown)
VH: EVQLVESGGGLVKPGGSLRLSCAASGFTFSSYTMSWVRQAPGKGLEWVSTISSGGTYTYYPDSVKGRFTISRDNAKNSLYLQMNSLRAEDTAVYYCARDGYDGFDYWGQGTTVTVSS
VL: DIVMTQTPLSLSVTPGQPASISCRSSQSLAHSNGNTYLHWYLQKPGQSPQLLIYKVSNRFSGVPDRFSGSGSGTDFTLKISRVEAEDVGVYYCSQSTHVPTFGGGTKVEIKR
notes: also called HA-I

EC50 [6]: 0.306 µg/mL
IC50 [7]: 0.204 µg/mL
binding result [8]: no binding (tested: 50μg/mL)
binding result [9]: no binding (tested: 50μg/mL)
binding result [10]: no binding (tested: 50μg/mL)
binding result [11]: no binding (tested: 50μg/mL)
binding result [12]: no binding (tested: 50μg/mL)
binding result [13]: no binding (tested: 50μg/mL)
binding result [14]: no binding (tested: 50μg/mL)
binding result [15]: no binding (tested: 50μg/mL)
binding result [16]: no binding (tested: 50μg/mL)
binding result [17]: no binding (tested: 50μg/mL)
IC50 of inhibition of ARG1 secretion by THP-1 cells with ApoE (arginase activity) [18]: 23.9 µg/mL
EC50 [19]: 8.35 ng/mL
OD 450nm/630nm [20]: 0.064 OD
OD 450nm/630nm [21]: 0.072 OD
OD 450nm/630nm [22]: 0.077 OD
OD 450nm/630nm [23]: 0.036 OD
OD 450nm/630nm [24]: 0.068 OD
OD 450nm/630nm [25]: 0.092 OD
OD 450nm/630nm [26]: 0.197 OD
OD 450nm/630nm [27]: 0.083 OD
OD 450nm/630nm [28]: 2.97 OD
OD 450nm/630nm [29]: 0.12 OD
OD 450nm/630nm [30]: 0.054 OD
B4: MA-Ⅰ 鼠源抗LILRB4单克隆抗体 (mouse IgG1, Ck) (antibody)
heavy: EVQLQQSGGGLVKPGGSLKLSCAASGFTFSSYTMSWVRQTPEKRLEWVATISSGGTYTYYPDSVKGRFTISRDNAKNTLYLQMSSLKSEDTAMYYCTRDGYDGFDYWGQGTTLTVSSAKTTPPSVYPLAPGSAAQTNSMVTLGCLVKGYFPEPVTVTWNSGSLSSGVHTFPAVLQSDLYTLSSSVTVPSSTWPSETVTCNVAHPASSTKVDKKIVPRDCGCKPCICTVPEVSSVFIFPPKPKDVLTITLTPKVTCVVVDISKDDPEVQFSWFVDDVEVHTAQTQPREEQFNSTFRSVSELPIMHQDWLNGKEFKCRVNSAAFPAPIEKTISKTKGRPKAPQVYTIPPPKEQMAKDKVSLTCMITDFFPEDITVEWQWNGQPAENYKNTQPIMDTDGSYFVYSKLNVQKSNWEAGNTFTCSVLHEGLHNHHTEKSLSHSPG
light: DIVMTQTTLSLPVSPGDQASISCRSSQSLAHSNGNTYLHWYLQKPGQSPKLLIYKVSNRFSGVPDRFSGSGSGTDFTLKISRVEAEDLGVYFCSQSTLVPTFGGGTKLEIKADAAPTVSIFPPSSEQLTSGGASVVCFLNNFYPKDINVKWKIDGSERQNGVLNSWTDQDSKDSTYSMSSTLTLTKDEYERHNSYTCEATHKTSTSPIVKSFNRNEC
notes: also called MA-I; 鼠源抗体MA-Ⅰ
